Data taken from patent US20170218064A1 (Stanford University, published 2017).
Values belong to the binder of their own block, whether it stands above or below them.

Target: T1, human neuromedin U (NMU), bioactive processed 25 amino acid form (human, C-terminal amidation (-NH2))
T1 construct: In the serum ELISAs the target is endogenous circulating human NMU; also called human NMU; NMU-25
T1 peptide: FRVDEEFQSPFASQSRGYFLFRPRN
Assay: not described

- binding result: binds
B1: anti-NMU monoclonal antibody 2A16 (antibody, V domains shown)
VH: QIQLVQSGPELKKPGETVKISCKASGYTFTKHGMNWMKQAPGKGLKWMGWINTNTGEPTYSEEFKGRFAFSLETSASTAYLQINNLKNEDTATYFCARTGRYGVDYWGKGTSVTVSS
VL: DIQMTQSPSSLSASLGERVSLTCRASQDIGSNLNWIQQEPDGTIKRLIYATSTLDSGVPKRFSGSRSGSDYFLTISSLESEDFVDYYCLQFDSSPLTFGAGTKLELK
notes: Monoclonal antibody from a mouse hybridoma

- binding result: binds
B2: anti-NMU monoclonal antibody C578 (antibody, V domains shown)
VH: EVQLQQSGAELVRSGASVKLSCAASGFNIKDYYIHWVKQRPEQGLEWIGWIDPENGDNECAPKFQGKATMTADTSSNTAYLQLTSLTSEDTAVYYCNAGKGDYWGQGTTLTVSS
VL: NIVMTQSPSSLAMSIGQKVTMSCRSSQSLLNSSNQKNYLAWYQQKPGQSPKLLVYFASTRESGVPARFIGSGSGTDFTLTISSVQAEDLADYFCQQHYSTPFTFGSGTKLEIK
notes: as for B1
